{"source": "paper PMC3604133", "target": "Aβ40-S26C (synthetic human Aβ1-40 in which Ser26 was changed to cysteine) (human)", "assay": "SEC"}
{"substance": "Aβ40-S26C (synthetic human Aβ1-40 in which Ser26 was changed to cysteine) (peptide)", "values": [{"measurement": "stoichiometry N", "value": 2}]}
